Source: PMC6155255, “Synthetic Peptides Derived from Bovine Lactoferricin Exhibit Antimicrobial Activity against E. coli ATCC 11775, S. maltophilia ATCC 13636 and S. enteritidis ATCC 13076” (Molecules : A Journal of Synthetic Chemistry and Natural …, 2017)

Tests used:
E. coli ATCC 11775 [1] = type: cell-based, Escherichia coli; conditions: 200 µg/well, 8 mm wells in Mueller-Hinton agar, 48 h at 37 °C
Experimental: (§1) These tests were carried out following the methodology reported in [36]. Briefly, an inoculum aliquot (200 µL; 2 × 10^6 CFU/mL) was placed on Mueller-Hinton (MH) Agar plates, mixed, and allowed to solidify. Wells were drilled using a punch of 8 mm, and then each hollow was filled with 100 µL of peptide (2000 µg/mL). Incubation for 48 h at 37 °C was then performed. As a non-growth control, ciprofloxacin 1.25 µg/mL was used for all tested strains. Sterile water was used as a growth control.

[2] = tested on: S. enteritidis ATCC 13076; type: cell-based, Salmonella enteritidis; conditions: S. enteritidis ATCC 13076, value in brackets (µM), 24 h at 37 °C, performed twice
Experimental: (§2) The MIC and MBC were determined using a microdilution assay. In brief, bacterial strains were incubated for 18 to 24 h at 37 °C in an MH broth until an optical density of 0.15 to 0.30 (620 nm) was obtained. 90 µL of Mueller-Hinton broth (MHB) were mixed with 90 µL of peptide (440 µg/mL), and using a 96-well microtiter plate peptide, serial dilution (200, 100, 50, 25, 12.5, and 6.2 µg/mL) was performed. 10 µL of inoculum (2 × 10^6 CFU/mL) was added to each well. Final volume in each well was 100 µL. Then they were incubated for 24 h at 37 °C; and the absorbance at 620 nm was measured using an Asys Expert Plus ELISA reader. To determine the MBC, an aliquot was taken from each well and was spread onto a MHA plate. After 24 h at 37 °C, the CFU/mL was determined. Each of these tests was performed twice.

[3] = tested on: various strains of E. coli (0111, L361, ATCC 25922, wild strain, and IID-861); conditions: various strains of E. coli (0111, L361, ATCC 25922, wild strain, IID-861); cited from earlier work
Experimental: For BLF, a Minimum Inhibitory Concentration (MIC) and Minimum Bactericidal Concentration (MBC) larger than 200 µg/mL against the evaluated strains were found (Table 1), implying that high concentrations of the protein are required to achieve antibacterial activity. […] Furthermore, its purification is a long and expensive process.

[4] = tested on: S. enteritidis ATCC 13076; type: cell-based, Salmonella enteritidis; conditions: 200 µg/well, 8 mm wells in Mueller-Hinton agar, 48 h at 37 °C
Experimental: as §1

E. coli ATCC 11775 [5] = type: cell-based, Escherichia coli; conditions: E. coli ATCC 11775, value in brackets (µM), 24 h at 37 °C, performed twice
Experimental: as §2

[6] = tested on: S. maltophilia ATCC 13636; type: cell-based, Stenotrophomonas maltophilia; conditions: S. maltophilia ATCC 13636, value in brackets (µM), 24 h at 37 °C, performed twice
Experimental: as §2

[7] = tested on: S. maltophilia ATCC 13636; type: cell-based, Stenotrophomonas maltophilia; conditions: 200 µg/well, 8 mm wells in Mueller-Hinton agar, 48 h at 37 °C
Experimental: as §1

[8] = microdilution, Mueller-Hinton broth

B1: BLF: Bovine lactoferrin, 703 amino acids, 80 kDa glycoprotein; obtained from Sigma-Aldrich (protein, UniProt P24627 20-708, looked up)
Lactotransferrin: APRKNVRWCTISQPEWFKCRRWQWRMKKLGAPSITCVRRAFALECIRAIAEKKADAVTLDGGMVFEAGRDPYKLRPVAAEIYGTKESPQTHYYAVAVVKKGSNFQLDQLQGRKSCHTGLGRSAGWIIPMGILRPYLSWTESLEPLQGAVAKFFSASCVPCIDRQAYPNLCQLCKGEGENQCACSSREPYFGYSGAFKCLQDGAGDVAFVKETTVFENLPEKADRDQYELLCLNNSRAPVDAFKECHLAQVPSHAVVARSVDGKEDLIWKLLSKAQEKFGKNKSRSFQLFGSPPGQRDLLFKDSALGFLRIPSKVDSALYLGSRYLTTLKNLRETAEEVKARYTRVVWCAVGPEEQKKCQQWSQQSGQNVTCATASTTDDCIVLVLKGEADALNLDGGYIYTAGKCGLVPVLAENRKSSKHSSLDCVLRPTEGYLAVAVVKKANEGLTWNSLKDKKSCHTAVDRTAGWNIPMGLIVNQTGSCAFDEFFSQSCAPGADPKSRLCALCAGDDQGLDKCVPNSKEKYYGYTGAFRCLAEDVGDVAFVKNDTVWENTNGESTADWAKNLNREDFRLLCLDGTRKPVTEAQSCHLAVAPNHAVVSRSDRAAHVKQVLLHQQALFGKNGKNCPDKFCLFKSETKNLLFNDNTECLAKLGGRPTYEEYLGTEYVTAIANLKKCSTSPLLEACAFLTR
- inhibition halo (E. coli ATCC 11775 [1]): ~ 9 mm
- MBC ([2]; aliquot spread on MHA plate): > 2.5 µM
- MIC [2, 8]: > 2.5 µM
- BLF concentration required for exhibiting an antibacterial effect [3]: greater than 200 µg/mL
- inhibition halo [4]: ~ 9 mm
- MBC (E. coli ATCC 11775 [5]; aliquot spread on MHA plate): > 2.5 µM
- MIC (E. coli ATCC 11775 [5]; [8]): > 2.5 µM
- MBC ([6]; aliquot spread on MHA plate): > 2.5 µM
- MIC [6, 8]: > 2.5 µM
- inhibition halo [7]: ~ 9 mm
